Experimental data taken from patent US20260009052, “CAS12 PROTEINS AND USES THEREOF” (GUANGZHOU REFORGENE MEDICINE CO., LTD., published 2026).

Tests used:
[1] = target: T1, C12-279 D352R (synthetic construct, D352R); experiment: cell_activity; PAM TTG; +/-0.22
T1 chain: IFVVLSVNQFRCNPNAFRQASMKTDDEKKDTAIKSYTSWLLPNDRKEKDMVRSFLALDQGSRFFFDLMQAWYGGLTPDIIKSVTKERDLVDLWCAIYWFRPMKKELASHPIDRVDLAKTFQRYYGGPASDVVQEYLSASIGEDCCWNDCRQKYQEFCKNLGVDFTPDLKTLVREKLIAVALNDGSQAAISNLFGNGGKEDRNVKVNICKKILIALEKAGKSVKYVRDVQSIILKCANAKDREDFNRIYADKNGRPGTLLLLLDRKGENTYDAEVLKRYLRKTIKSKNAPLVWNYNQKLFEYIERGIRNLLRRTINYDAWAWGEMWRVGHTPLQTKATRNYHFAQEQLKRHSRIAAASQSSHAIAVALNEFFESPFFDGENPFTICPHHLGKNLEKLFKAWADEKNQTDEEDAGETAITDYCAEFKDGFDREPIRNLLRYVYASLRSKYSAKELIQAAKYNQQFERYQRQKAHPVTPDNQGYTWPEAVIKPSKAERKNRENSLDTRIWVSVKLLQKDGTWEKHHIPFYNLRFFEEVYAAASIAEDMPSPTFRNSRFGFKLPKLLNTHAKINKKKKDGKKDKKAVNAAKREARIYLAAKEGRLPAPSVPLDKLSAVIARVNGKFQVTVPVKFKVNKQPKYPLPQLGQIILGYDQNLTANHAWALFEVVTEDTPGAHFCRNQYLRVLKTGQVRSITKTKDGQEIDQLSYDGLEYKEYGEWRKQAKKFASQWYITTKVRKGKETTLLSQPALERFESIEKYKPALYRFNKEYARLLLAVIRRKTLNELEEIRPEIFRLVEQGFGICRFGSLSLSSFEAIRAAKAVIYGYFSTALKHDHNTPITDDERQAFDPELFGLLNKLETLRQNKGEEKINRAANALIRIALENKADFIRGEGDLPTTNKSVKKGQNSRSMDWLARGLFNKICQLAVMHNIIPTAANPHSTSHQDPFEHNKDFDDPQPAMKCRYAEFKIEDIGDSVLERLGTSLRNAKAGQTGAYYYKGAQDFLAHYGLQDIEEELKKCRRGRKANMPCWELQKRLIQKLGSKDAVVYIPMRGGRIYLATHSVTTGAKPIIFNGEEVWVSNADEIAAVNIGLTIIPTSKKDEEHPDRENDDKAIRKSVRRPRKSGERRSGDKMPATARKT
Method: Transfection: transfection was performed 12-14 h after plating. 1.5 μL PEI (Yeasen Biotechnology, 40815ES03, Polyethylenimine Linear (PEI) MW25000) and 500 ng mutation clone plasmid were added to 100 μL Opti-MEM per well of the 24-well plate, mixed, and added to the NAAN cell line for cell transfection after placing at room temperature for 20 min. After overnight transfection, a fresh culture medium was replaced, and the culture was continued for 72 h, followed by flow cytometry. Editing efficiencies of different mutant clones were characterized by the proportion of GFP-positive cells.
Editing efficiency of some selected mutants was tested in Reporter3 cell line using the same manner as described for the NAAN reporter system, except that the cell line was changed from NAAN cell line to Reporter3 cell line.

[2] = target: T2, C12-279 Mut-02-1-426-846-858-860 (C12-279-V4) (synthetic construct, I1R,Q186R,D352R,D426R,846R,858R,L860R); experiment: cell_activity; PAM TTG; mutant PAM 5'-WTN-3' by Example 17
T2 chain: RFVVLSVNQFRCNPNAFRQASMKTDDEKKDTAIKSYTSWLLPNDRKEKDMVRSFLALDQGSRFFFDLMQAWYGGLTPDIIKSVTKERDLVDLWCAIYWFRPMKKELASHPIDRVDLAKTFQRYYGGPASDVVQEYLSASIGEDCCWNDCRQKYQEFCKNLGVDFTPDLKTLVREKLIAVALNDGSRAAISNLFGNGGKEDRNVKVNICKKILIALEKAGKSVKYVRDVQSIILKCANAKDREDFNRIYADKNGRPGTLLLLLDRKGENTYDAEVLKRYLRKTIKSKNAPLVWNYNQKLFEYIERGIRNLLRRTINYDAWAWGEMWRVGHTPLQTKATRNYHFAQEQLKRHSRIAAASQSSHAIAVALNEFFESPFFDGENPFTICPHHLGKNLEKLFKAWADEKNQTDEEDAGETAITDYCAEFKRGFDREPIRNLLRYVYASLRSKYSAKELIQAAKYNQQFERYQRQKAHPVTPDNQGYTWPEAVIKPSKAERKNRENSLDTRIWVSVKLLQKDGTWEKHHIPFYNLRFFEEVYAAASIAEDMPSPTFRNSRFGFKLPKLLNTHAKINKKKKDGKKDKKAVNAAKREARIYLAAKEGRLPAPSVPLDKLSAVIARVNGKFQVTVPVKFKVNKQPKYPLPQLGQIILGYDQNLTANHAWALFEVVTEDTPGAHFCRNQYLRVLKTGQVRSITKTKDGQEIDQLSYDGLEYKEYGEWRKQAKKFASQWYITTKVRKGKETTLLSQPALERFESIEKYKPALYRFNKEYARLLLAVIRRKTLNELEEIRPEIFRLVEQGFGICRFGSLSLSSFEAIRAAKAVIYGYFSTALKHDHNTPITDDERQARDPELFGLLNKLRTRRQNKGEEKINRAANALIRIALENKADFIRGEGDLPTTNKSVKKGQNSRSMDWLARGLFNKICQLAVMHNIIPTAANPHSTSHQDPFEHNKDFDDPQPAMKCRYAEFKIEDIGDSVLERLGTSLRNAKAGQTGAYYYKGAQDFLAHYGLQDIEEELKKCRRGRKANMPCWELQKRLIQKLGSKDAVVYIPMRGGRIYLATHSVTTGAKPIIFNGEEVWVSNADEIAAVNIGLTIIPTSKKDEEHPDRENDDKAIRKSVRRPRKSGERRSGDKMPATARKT

B1: C12-279 Reporter3 sgRNA ; Reporter3 target (ssRNA ; dsDNA)
RNA: GUAAUGCGUCUCCCAUUGACGCCUCACCUCGCGACGCAAUGAUG
DNA 1: CTCACCTCGCGACGCAATGATG
DNA 2: CATCATTGCGTCGCGAGGTGAG
With B1 the binding signal [1] was 1.18 fold of C12-279 and the binding signal [2] was 3.88 fold of C12-279.
